In the supplement of paper PMC7125110:
± gives the standard error. Variants at the floor of the assay were thinned out.

B1: glmS ribozyme (parent)
chain: AUAAAAGCGCCAGAACUACAGAAAUGUAGUUGACGAGGAGGAGGUUUAUCGAAUUUUCGGCGGAUGCCUCCAAA

What was measured:
Conditions in all cases: with glucosamine-6-phosphate
glucosamine-6-phosphate [1] = variants of: B1; test: self-cleavage kobs at 40 uM GlcN6P; higher = faster cleavage; RNA array
In short: (§1)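 Tracking of barcoded ribozyme variants used a hybridised Cy3 probe at 37 °C, after in situ transcription by E. coli RNA polymerase on sequenced MiSeq chips. The flowed solution held 40 μM to 10 mM glucosamine-6-phosphate in HEPES/KCl/Mg(OAc)2 buffer, and imaging ran over ~14 h. kobs was taken from exponential decay fits of normalised per-tile medians, and kcat and KM from weighted Michaelis–Menten fits.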

glucosamine-6-phosphate [2] = variants of: B1; test: self-cleavage kobs at 640 uM GlcN6P; higher = faster cleavage; RNA array
In short: as §1

glucosamine-6-phosphate [3] = variants of: B1; test: self-cleavage kobs at 10000 uM GlcN6P; higher = faster cleavage; RNA array
In short: as §1

glucosamine-6-phosphate [4] = variants of: B1; test: self-cleavage kobs at 160 uM GlcN6P; higher = faster cleavage; RNA array
In short: as §1

glucosamine-6-phosphate [5] = variants of: B1; test: self-cleavage kobs at 2500 uM GlcN6P; higher = faster cleavage; RNA array
In short: as §1

Variant | self-cleavage kobs at 40 uM GlcN6P (glucosamine-6-phosphate [1]) [s⁻¹] | self-cleavage kobs at 640 uM GlcN6P (glucosamine-6-phosphate [2]) [s⁻¹] | self-cleavage kobs at 10000 uM GlcN6P (glucosamine-6-phosphate [3]) [s⁻¹] | self-cleavage kobs at 160 uM GlcN6P (glucosamine-6-phosphate [4]) [s⁻¹] | self-cleavage kobs at 2500 uM GlcN6P (glucosamine-6-phosphate [5]) [s⁻¹]
AUAAAAUCGCCAGAAGUACAGAAAUGUAGUUGACGAGGAGGAGGUUUAUCGAAUUUUCAGCGGAUGCCUCCAAA [G7U C16G G59A] | < 1e-05 | < 1e-05 | < 1e-05 |  | 
AUAAAAGCGCCAGAACUACAGAAAUGUAGUUGACGAGGAGGAGGUUUCUCGAAUUUUCGGCGGAUGCAUCCAAA [A48C C68A] | < 1e-05 |  | < 1e-05 |  | 
AUAAAAGCGCCAGAACUACAGAAAUGUAGUUGACGGGGAGGAGGUUUAUCGAAUUUUCUGCGGAUGCCUCCAAA [A36G G59U] | < 1e-05 | < 1e-05 | < 1e-05 | < 1e-05 | < 1e-05
AUAAAAGCGCCAGAACUACAGAAAUGUAGUUGAUGAGGAGGAGGUUUAUCGAAAUUUCGGCGGAUGCCUCCAAA [C34U U54A] | < 1e-05 | < 1e-05 | < 1e-05 |  | 
AUAAAAGCGCCAGAACUACAGAAAUGUAGUUGACAAGGAGGAUGUUUAUCGAAUUUUCGGCGGAUGCCUCCAAA [G35A G43U] | < 1e-05 | < 1e-05 | < 1e-05 | < 1e-05 | < 1e-05
CUAAAAGCGCCAGAACUACAGAAAUGUAGUUGACGAGGAGGAGGUUUAUCGAAUUUUCGGCGGAUGCCUCCAAA [A1C] | 0.00111 ± 0.00028 | 0.0192 ± 0.0042 | 0.0709 ± 0.033 | 0.00363 ± 0.00095 | 0.0128 ± 0.0042
AUAAAUGCGCCAGAACUACAGAAAUGUAGUUGACGAGGAGGAGAUUUAUCGAAUUUUCGGCGGAUGCCUUCAAA [A6U G44A C70U] | < 1e-05 |  |  |  | 
AUAAAGGCGUCAGAACUACAGAAAUGUAGUUGACGAGGGGGAGGUUUAUCGAAUUUUAGGCGGAUGCCUCCAAA [A6G C10U A39G C58A] | < 1e-05 |  | < 1e-05 |  | < 1e-05
AUAAAAGCGUCAGAACUACAGAAAUGUAGUUGACGACGAGGAGGUUUAUCGAAUUUUCGGCGGAUGCCUCCAAA [C10U G37C] | < 1e-05 | < 1e-05 | < 1e-05 |  | 
AUAAAAGCGCCAGAACUACAGAAAUGUAGUUGACGAGGAAGAGGUUUAUAGAAUUUUCGGCGGAUGCCUGCAAA [G40A C50A C70G] | < 1e-05 |  |  |  | 
AUAAAAUCGCCAGAGCUACAGAAAUGUAGUUGACGAGGAGGAGGUUUAUCGAAUUUUCGGCGGAUGCCUCCAAA [G7U A15G] | < 1e-05 | < 1e-05 | < 1e-05 | < 1e-05 | < 1e-05
AUAAAAGUGCCAGAACUACAGAAAUGUAGUUGACGAGGAGGAGGUUUAUCGAAUUUUCGGCGUAUGCCUCCAAA [C8U G63U] | < 1e-05 | < 1e-05 |  | < 1e-05 | 
